Where “and” joins values, the source holds several entries; their conditions need not be identical. Identical values can stand only once.
T1: Factor XIIa (FXIIa) (UniProt P00748 20-372; P00748 373-615, limits assumed)
T1 construct: the description speaks of human FXIIa; also called active Factor XII
T1 sequence (looked up) 1: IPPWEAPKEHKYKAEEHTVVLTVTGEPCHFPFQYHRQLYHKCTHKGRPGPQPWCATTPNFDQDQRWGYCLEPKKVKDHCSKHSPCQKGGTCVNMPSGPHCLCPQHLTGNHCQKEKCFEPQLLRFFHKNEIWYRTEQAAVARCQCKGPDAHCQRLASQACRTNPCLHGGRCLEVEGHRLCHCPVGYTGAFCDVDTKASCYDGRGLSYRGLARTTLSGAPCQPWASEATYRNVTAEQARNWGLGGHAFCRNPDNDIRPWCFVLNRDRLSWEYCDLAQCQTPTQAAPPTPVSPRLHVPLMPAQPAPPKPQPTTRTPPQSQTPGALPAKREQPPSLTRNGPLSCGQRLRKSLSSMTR
T1 sequence (looked up) 2: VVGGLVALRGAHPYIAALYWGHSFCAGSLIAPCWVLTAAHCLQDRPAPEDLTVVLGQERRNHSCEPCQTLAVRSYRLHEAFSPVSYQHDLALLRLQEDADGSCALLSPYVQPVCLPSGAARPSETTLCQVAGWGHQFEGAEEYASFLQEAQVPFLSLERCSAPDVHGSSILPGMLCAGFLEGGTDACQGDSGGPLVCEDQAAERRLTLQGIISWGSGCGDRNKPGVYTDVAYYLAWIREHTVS

B1: 620I-X0177-A01 (bispecific antibody, human IgG1, kappa)
heavy: not shown
light: DIQMTQSPSTLSASVGDRVTITCRASQSISSWLAWYQQKPGKAPKLLIYKASTLESGVPSRFSGSGSGTEFTLTISSLQPDDFATYYCQQYNTYWTFGQGTKVEIKRTVAAPSVFIFPPSDEQLKSGTASVVCLLNNFYPREAKVQWKVDNALQSGNSQESVTEQDSKDSTYSLSSTLTLSKADYEKHKVYACEVTHQGLSSPVTKSFNRGEC
notes: 620I-X0136-D12 with germlined, gene-optimized scFv and VH44-VL100 disulfide; also called 620I-X0173-A11; 620I-X0136-D12 with H44/L100 engineered disulfide bond
B2: X0122-C01 (bispecific antibody)
heavy: not shown
light: B1 light
notes: also called X122-C01
B3: X0122-A01 (bispecific antibody)
heavy: not shown
light: B1 light
notes: also called X122-A01
B4: X0120-A01 (bispecific antibody)
heavy: not shown
light: B1 light
notes: also called X120-A01
B5: X0121-E01 (bispecific antibody)
heavy: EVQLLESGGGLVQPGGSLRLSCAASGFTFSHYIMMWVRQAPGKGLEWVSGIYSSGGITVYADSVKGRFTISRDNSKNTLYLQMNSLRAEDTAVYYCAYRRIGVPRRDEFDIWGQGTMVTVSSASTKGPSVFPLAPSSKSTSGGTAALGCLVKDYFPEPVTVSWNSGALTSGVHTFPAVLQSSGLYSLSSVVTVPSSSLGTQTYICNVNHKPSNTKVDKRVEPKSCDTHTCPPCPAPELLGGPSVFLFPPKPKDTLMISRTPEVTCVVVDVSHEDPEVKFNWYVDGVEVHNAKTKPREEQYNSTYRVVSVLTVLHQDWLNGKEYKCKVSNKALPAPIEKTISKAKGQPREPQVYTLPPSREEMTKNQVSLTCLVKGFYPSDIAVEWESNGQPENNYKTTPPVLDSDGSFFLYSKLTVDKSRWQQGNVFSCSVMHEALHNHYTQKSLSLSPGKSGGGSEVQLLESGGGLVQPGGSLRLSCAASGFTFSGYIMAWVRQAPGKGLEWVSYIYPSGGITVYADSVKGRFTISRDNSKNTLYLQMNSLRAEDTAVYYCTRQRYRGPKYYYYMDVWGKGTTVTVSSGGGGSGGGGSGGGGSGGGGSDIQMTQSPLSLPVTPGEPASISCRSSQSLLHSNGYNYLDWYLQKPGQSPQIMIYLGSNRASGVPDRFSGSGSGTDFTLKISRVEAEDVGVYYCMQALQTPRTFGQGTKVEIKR
light: B1 light
notes: also called X121-E01
B6: DX-2930 (antibody, human IgG1, kappa, V domains shown)
VH: EVQLLESGGGLVQPGGSLRLSCAASGFTFSHYIMMWVRQAPGKGLEWVSGIYSSGGITVYADSVKGRFTISRDNSKNTLYLQMNSLRAEDTAVYYCAYRRIGVPRRDEFDIWGQGTMVTVSS
VL: DIQMTQSPSTLSASVGDRVTITCRASQSISSWLAWYQQKPGKAPKLLIYKASTLESGVPSRFSGSGSGTEFTLTISSLQPDDFATYYCQQYNTYWTFGQGTKVEIKR
notes: Anti-pKal IgG1; also called H03

Columns and labels:
plasma kallikrein (pKal) [1] = target: T2, plasma kallikrein (pKal) (UniProt P03952 20-390; P03952 391-638, limits assumed); assay: enzyme inhibition of human pKal: rate (F/s) against antibody concentration (0 to 10 nM), fit to the tight-binding equation printed in the panel; K is Ki,app. Columns are coefficient, std. error, t, P. The unit is taken from the concentration axis '[nM]' [CONT'D) B. (right panel]
T2 construct: the description speaks of human pKal; also called active pKal

plasma kallikrein (pKal) [2] = target: T2, plasma kallikrein (pKal); assay: enzyme inhibition assay, apparent Ki
Factor XIIa (FXIIa) [3] = target: T1, Factor XIIa (FXIIa); assay: enzyme inhibition assay, apparent Ki
Factor XIIa (FXIIa) [4] = target: T1, Factor XIIa (FXIIa); assay: enzyme inhibition: rate (F/s) against antibody concentration (0 to about 9000 pM), fit to the tight-binding inhibitor equation; K is Ki,app. FXIIa as the enzyme follows from the text; it is not printed in the panel [right panel]
plasma kallikrein (pKal) [5] = target: T2, plasma kallikrein (pKal); assay: enzyme inhibition, peptide substrate, tight-binding fit, Ki,app
Procedure: (§1) Varying concentrations of the bispecific antibodies were incubated with individual FXIIa and pKal samples, and the ability of these proteases to cleave a peptide substrate was monitored over time by measuring changes in the fluorescence of a chemical moiety covalently attached to the peptide substrate. Slopes of this kinetic data are equivalent to enzymatic proteolytic rates, which are then plotted against the concentration of the inhibitor. The resulting plots are then fit to a tight binding inhibitor equation (Equation 1) by nonlinear regression to obtain apparent inhibition constants (Kᵢ^app).

Factor XIIa (FXIIa) [6] = target: T1, Factor XIIa (FXIIa); assay: as above
Procedure: as §1

plasma kallikrein (pKal) [7] = target: T2, plasma kallikrein (pKal); assay: pKal enzyme inhibition, Ki,app, control
plasma kallikrein (pKal) [8] = target: T2, plasma kallikrein (pKal); assay: enzyme inhibition, corrected Ki,app, control plate 2
plasma kallikrein (pKal) [9] = target: T2, plasma kallikrein (pKal); assay: enzyme inhibition, corrected Ki,app, control plate 1
plasma kallikrein (pKal) [10] = target: T2, plasma kallikrein (pKal); assay: enzyme inhibition of human pKal: rate (F/s) against antibody concentration (0 to 10 nM), fit to the tight-binding equation printed in the panel; K is Ki,app. Columns are coefficient, std. error, t, P. The unit is taken from the concentration axis '[nM]' [CONT'D) B. (left panel]

T2 sequence (P03952 20-390 limits assumed, form in doubt, chain 1 of 2): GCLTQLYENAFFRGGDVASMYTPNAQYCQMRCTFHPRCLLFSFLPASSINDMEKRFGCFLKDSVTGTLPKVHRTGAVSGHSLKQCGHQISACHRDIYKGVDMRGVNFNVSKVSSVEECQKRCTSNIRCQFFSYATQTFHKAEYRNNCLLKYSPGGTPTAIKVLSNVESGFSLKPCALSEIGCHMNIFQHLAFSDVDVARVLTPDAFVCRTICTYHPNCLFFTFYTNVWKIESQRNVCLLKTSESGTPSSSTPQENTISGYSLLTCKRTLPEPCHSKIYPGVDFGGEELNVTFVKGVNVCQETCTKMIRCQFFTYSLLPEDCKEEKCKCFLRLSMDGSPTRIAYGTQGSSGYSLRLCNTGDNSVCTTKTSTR
T2 sequence (P03952 391-638 limits assumed, form in doubt, chain 2 of 2): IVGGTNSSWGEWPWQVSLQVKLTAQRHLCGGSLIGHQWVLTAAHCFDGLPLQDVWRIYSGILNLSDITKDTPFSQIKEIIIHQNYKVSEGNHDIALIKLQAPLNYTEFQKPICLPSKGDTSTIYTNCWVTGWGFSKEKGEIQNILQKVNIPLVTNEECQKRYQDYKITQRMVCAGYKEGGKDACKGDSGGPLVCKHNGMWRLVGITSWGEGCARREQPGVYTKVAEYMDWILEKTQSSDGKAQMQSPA

Binder	Ki (plasma kallikrein (pKal) [5]) [nM]	Ki (Factor XIIa (FXIIa) [6]) [nM]	further results
B1	–	–	Ki (plasma kallikrein (pKal) [1]): 0.39 nM; Ki (plasma kallikrein (pKal) [2]): 0.389 nM; Ki (Factor XIIa (FXIIa) [3]): 0.073 nM; Ki (Factor XIIa (FXIIa) [4]): 0.0726 nM
B2	0.161	5.69	–
B3	0.169	6.05	–
B4	0.138	0.0515	–
B5	0.159	0.611	–
B6	–	–	Ki (plasma kallikrein (pKal) [7]): 0.127 nM and 0.131 nM and 0.151 nM; Ki (plasma kallikrein (pKal) [8]): 0.138 nM; Ki (plasma kallikrein (pKal) [9]): 0.16 nM; Ki (plasma kallikrein (pKal) [10]): 0.202 nM
